Data published in the supplement of paper PMC9170038.

Assays:
[1] = tested on: MS2 coat protein; assay: apparent KD of MS2 coat protein, switch OFF state (with FMN for OFF switches, without FMN for ON switches); designed switch direction (-1 OFF switch, 1 ON switch): -1; higher = weaker reporter binding; details: FMN input: 0 or 200 uM; Eterna round: R93 (includes R88 designs)
Summary of the method: (§1)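 Each design's apparent KD comes from the median of binding-curve fits to its normalised clusters. Those clusters carried RNA switches transcribed on-chip from Illumina sequencing clusters. SNAP-549-labelled MS2 coat protein was titrated onto them in twofold steps (0.7 or 1.5 nM to 3 µM; per step 0.8–1.5 h down to 10–20 min). Conditions were 100 mM Tris-HCl pH 7.5, 80 mM KCl, 4 mM MgCl2, without or with constant ligand.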

[2] = tested on: MS2 coat protein; assay: apparent KD of MS2 coat protein, switch ON state; designed switch direction (-1 OFF switch, 1 ON switch): -1; higher = weaker reporter binding; details: FMN input: 0 or 200 uM; Eterna round: R93 (includes R88 designs)
Summary of the method: as §1

Sequence	apparent KD of MS2 coat protein [1] [nM]	apparent KD of MS2 coat protein [2] [nM]
AGCUAGUCAGGAUAUACGAGCAUGUCAAAAGACGUGAAGGGACAUGAGGAUCACCCAUGUAGAAGGGACUAGCA [Diamond 22]	122	40.3
AACGAACAUGAGGAUCACCCAUGUCAGGAUAUGCAAAGAACGAUCGAACGAACGAUAAGCAGAAGGGACAGAGA [Amethyst 97]	40.4	27.7
GUCCUACAUGAGGAUCACCCAUGUCAGGAUAUGUAGCGUCCGAGCGAAAAGGCCCGGAGCAGAAGGGACAGGUG [Maisbia]	20.1	16.1
CUCUUGUCAGGAUAUGAAAGAAAAGAAGAGAAAGAAAAGAAUCAGAAGGGACAUGAGGAUCACCCAUGUAAGAA [EteRNA is fun!]	77.9	43.6
AAAAAACAUGAGGAUCACCCAUGUAAGGAUAUGCAAGAAAGAAGAAAGAAAAGAAAAAGCAGAAGGUACAAAAA [Amethyst 71]	34.4	32.1
AGCAAACAUGAGGAUCACCCAUGUCAGGAUAUGAACGAAAUAAAAUAAAAAUAAAAGUUCAGAAGGGACGAGCA [Mat - Exclusion 1 - Eli mod - D24]	43.5	32.3
AAGAAACAUGAGGAUCACCCAUGUGAGGAUAUUGAAAAGAAAAGAAAAGAAAGAAGAACAAGAAGGCACAAAGG [Merenhor]	37.8	39.4
GAAAAACAUGAGGAUCACCCAUGUCAGGAUAUGUAGAAAAAGAAAAAAAGAAAAGAAAACAGAAGGGACAAAAG [Mat - Same state - Mayanna Mod - D105]	38.5	32.6
GGGAUGUCAGGAUAUGUGUAAAGAAUAAAACAAAUAACAACACAGAAGGGACAUGAGGAUCACCCAUGUUACCC [May 39]	15.4	17
AAAAAGGGAGGAUAUACAUGAGGAUCACCCAUGUAAAACGCGCCAACAAAGAAACAAAGUAGAAGGCCCAAAAA [Default title]	14.5	17.3
GUGUACAGAGGAUAUACAUGAGCAUGGAAACAUGCAGGAUCACAUGAGGAUCACCCAUGUAGAAGGCUGUACAC [Ex2: 732]	12	35.1
AACAGUACAGGAUAUACAUGAGGAUCACCCAUGUGAGAGAAAUAAAACAAAAAUAAAAGUAGAAGGGUACUGGA [Moding Maslow revisited (73) 22]	43.3	41.7
AAAACACAUGAGGAUCACCCAUGUGAGGAUAUGCUAUGGAAAAUAAAAAUAAAACAUAGCAGAAGGCACAAAGG [Denovo 18]	244	32.9
AGCUAGUCAGGAUAUACGAACAUGUCGCCAGAUGUGAAGGGACAUGAGGAUCACCCAUGUAGAAGGGACUAGCA [salish99-Ex2-23]	198	254
AAAAAGGGAGGAUAUACAUGAGGAUCACCCAUGUAUCAGACGAAAAAGAGUCUGGAAUGUAGAAGGCCCAAAAA [65%, Moding Exclusion3-cac2, 3]	25	14.3
AAAUGUCUAGGAUAUACAUGAGGAUCACCCAUGUGUAAAAAUAAAUACACAAAAGAAAGUAGAAGGAGACAAAA [Ex 3 May 13]	47.3	22.4
ACUUAGACAGGAUAUACGUGAGUGGAAAAAGUGUAUCCACUACAUGAGGAUCACCCAUGUAGAAGGGUCUAAGA [Ex2 Design 182: Random 7]	19.7	18.6
AGUAGUACAGGAUAUACAUGAGGAUCACCCAUGUGAAAAUAAAGUGGCGUACCACAAAGUAGAAGGGUACUACA [Mat - Exclusion 3 - JL mod - D35]	138	27.9
GGUUGUGUAGGAUAUACAUGAGGAUCACCCAUGUGAGAGAAAAAAGUGAGAAAGAAAAGUAGAAGGACGUGACG [salish99-ex3-72]	42.7	45.3
AGAAAACAUGAGGAUCACCCAUGUCAGGAUAUCUAAAAGAAAAGAAAAGAAAGAAGAAAGAGAAGGGACAAGAA [Sekhemib-Perenmaat]	25.5	22.1
AACCAACAUGAGGAUCACCCAUGUCAGGAUAUGCGUACAACAUACAACAUACAUCAAAGCAGAAGGGACACAAA [Amethyst 84]	23.6	20.2
AGCUAGUCAGGAUAUACGAACAUGUCGAGAGACGUGAAGGGACAUGAGGAUCACCCAUGUAGAAGGGACUAGCA [Mat - Exclusion 2 - JL mod - D2]	170	35.5
AAAAAACAUGAGGAUCACCCAUGUGAGGAUAUCGAAAAGUUAAAGAAAAAGACGAAAAUGAGAAGGCGCAAAAA [Fiskers Exclusion D1]	23.9	26.3

Sequence	apparent KD of MS2 coat protein [1] [nM]	apparent KD of MS2 coat protein [2] [nM]
CUCAUGUGAGGAUAUGUACAGAAAAAAAUGGGUGAAACUGUACAGAAGGCACAUGAGGAUCACCCAUGUGCAAA [EX4 377: S S Pseudoknot 2]	21.4	19.1
ACCAGACAUGAGGAUCACCCAUGUCAGGAUAUCUAGAAAACCUCAUGUAAAAAAAUCUAGAGAAGGGAUAUGGA [Design 94: Pseudoknot D]	54.7	40.6
CUCAUGUCAGGAUAUGUAGCAUGAUACGAAAGUAUCAUGCUACAGAAGGGACAUGAGGAUCACCCAUGUCCAAA [Ex4: 944]	37.7	119
AAGAACGCAGGAUAUACAUGAGGAUCACCCAUGUAAAAGAAAGAAAAGGGAAAGAAAAGUAGAAGGGCGAAGAA [Aakheperkare Thutmose I]	33.1	33.9
AAAAAACAUGAGGAUCACCCAUGUCAGGAUAUCUGUAAAAAUUAAAAAAAUAAAAUACAGAGAAGGGACAUAAA [Ex1: 606]	100	44
AAGAAGUCAGGAUAUGCCAGAGAACAAGAAAGUGACGAAUAGCAGAAGGGACAUGAGGAUCACCCAUGUAAAGA [Opal 10]	21.9	33.7
AAUAAGUGAGGAUAUGCAAAUAAUAAAUAAAAUAAAAUAAAGCAGAAGGCACAUGAGGAUCACCCAUGUAAAUA [JR_Exc004_Sub001]	29.5	34
AUUAAGUGAGGAUAUGAGUGAACAACAAAACAAAUAACGACUCAGAAGGCACAUGAGGAUCACCCAUGUAUAAA [May 69]	28.7	31.7
AAAGGACGAGGAUAUACAUGAGGAUCACCCAUGUAAAAAGCGUAGUAAAAGAACUUAUGUAGAAGGCGUCCAAA [Meechl Ex3 2 R2 v3]	137	59.4
AGCUAGUCAGGAUAUACGAACAUGUCGGUGGACGUGAAGGGACAUGAGGAUCACCCAUGUAGAAGGGACUAGCA [salish99-Ex2-21]	91.5	41.3
UAAAGACAUGAGGAUCACCCAUGUGAGGAUAUCGGAGACAACAGAACAUCAAGUACAAUGAGAAGGCACAGAAA [JR_Exc001_Sub018]	47.1	40.6
AAGAAGCAAGGAUAUACAUGAGGAUCACCCAUGUAAAAGAAAGAAGGGAAAGAGAAAAGUAGAAGGUGCAAGAA [Shepsesre Tefnakhte]	30.1	25.7
ACCCUGCUAGGAUAUACAGCAGGGAUUCGAAAACCCACGAAACAUGAGGAUCACCCAUGUAGAAGGAGUAGGGA [Bimaat]	16	17.5
AAAAAAAAAGGAUAUAAAACAGAGGAUAUACAUAAAUAAAAACAUGAGGAUCACCCAUGUAGAAGGCUGAAAAA [Meechl Ex2 R2 m0]	22.2	18.7
AAGAAAGCAGGAUAUACAUGAGGAUCACCCAUGUAAAAGAAAGAAGGGAAAGAGAAAAGUAGAAGGGCUAAGAA [Wehemibre Necho II]	38.7	20.9
AAUAAACAUGAGGAUCACCCAUGUCAGGAUAUGCACAAACAAACAAACAAACAAGCUAGCAGAAGGGACACUAC [Amethyst 87]	31	23.1
AAAAGCACAGGAUAUACAAAAAAAUGACGAAAGUCAUAGGGACAUGAGGAUCACCCAUGUAGAAGGGUGCAAAA [Mod of Meechl's... 64% 4]	440	197
AAGAAGCUAGGAUAUACAUGAGGAUCACCCAUGUAAAAGAAAGAAAAGGGAAAGAAAAGUAGAAGGAGCAAGAA [Menpehtire Ramesses I]	35.6	28.7
AGGAAACAUGAGGAUCACCCAUGUCAGGAUAUUCAAAAGAAAAGAAAAGAAAGAAGAAGAAGAAGGGACAAGAA [Wazner]	44.5	36.7
AAAAAGUGAGGAUAUACAUGAGGAUCACCCAUGUGUAUAAAAAAUUACACAAAAGAAUGUAGAAGGCACUAAAA [JL Mayanne Mod Summer]	124	23.5
AACAGUACAGGAUAUACAUGAGGAUCACCCAUGUGAAAAUUAAGUGGGAGACCACAAGGUAGAAGGGUACUGGA [Mat - Exclusion 3 - Eli mod - D65]	57.7	176
AAAACACAUGAGGAUCACCCAUGUGAGGAUAUGCGAGUGAAAAUAAAAAUAAAACAUAGCAGAAGGCACAAGGA [Amethyst 80]	45	35.9
